Measurements: patent US20190177400A1, “BIOLOGICAL UPGRADING OF HYDROCARBON STREAMS WITH NICKEL-BINDING PROTEINS” (ExxonMobil Research and Engineering Company, priority 2017, published 2019)
Like-named read-outs stand apart in the source and are kept apart here.

How the values were obtained:
[1] = UV-VIS screening of binding and demetallation of Ni(II)-protoporphyrin (IX); type: biochemical; conditions: 50 μM porphyrin, 24 hrs, room temperature
Method: (§1) Three nickel- and one vanadium-containing model porphyrins (Ni(II)-protoporphyrin (IX); Ni(II)-meso-tetra-(4-carboxyphenyl) porphine; Ni(II)-meso-tetra-(N-methyl-4-pyridyl) porphine tetrachloride; & VO-meso-tetra-(N-methyl-4-pyridyl) porphine tetrachloride) were chosen as test substrates for the eight representative NBPs. […] The proteins' nickel- and vanadium-binding capabilities were assayed in a single phase, aqueous environment to eliminate mass transfer limitations that occur between multiple phases and stressful non-aqueous to conditions that may change protein structure and/or inhibit function. This approach minimizes false-negative results to maximize the number of potential protein candidates that can be identified.
A shift in the wavelength of maximal absorbance, commonly referred to as the “Soret band,” indicates a change in porphyrin conformation or a protein-porphyrin interaction.
(§2) To prepare crude protein, aliquots were thawed on ice and diluted 4-fold with protein assay buffer (PAB). To isolate purified nickel-binding proteins, protein aliquots were thawed on ice and proteins of interest were purified by HIS-tag-Ni-NTA column affinity followed by size exclusion chromatography with PD-10 desalting columns. Purified protein was eluted in PAB, collected in the first 2 mL PD-10 column flow-through fraction. Relative to the initial protein concentration, samples were diluted 4-fold to parallel crude protein samples.
(§3) Amber tubes were used for all assays to protect samples from light. Crude and purified protein samples were combined with porphyrin substrates, to achieve final concentrations in Table 3, and total assay volumes were raised to 10 mL with Tris buffer. Absorbance of a 2.4 mL sample was measured in a 1 cm quartz cuvette, at room temperature, 1 nm resolution, and 0.7 sec. integration time on an Evolution201® UV-VIS spectrophotometer with Thermo INSIGHT® software. Samples were incubated for 24 hrs. at room temperature and 75 RPM and their final UV-VIS absorbance spectra was measured. An absorbance baseline was collected using Tris buffer at the beginning of each time point and 1% error was observed between technical replicates.
(§4) Porphyrin Demetallation Calculation was calculated according to the formula (EVf−EXPf)÷EVo=% specific demetallation.

[2] = UV-VIS screening of binding and demetallation of Ni(II)-meso-tetra-(4-carboxyphenyl) porphine; type: biochemical; conditions: 10 μM porphyrin, 24 hrs
Method: as §1
UV-VIS spectroscopy was used for initial screening of protein activity against numerous model compounds because each model porphyrin has a characteristic UV-VIS absorbance spectrum. A shift in the wavelength of maximal absorbance, commonly referred to as the “Soret band,” indicates a change in porphyrin conformation or a protein-porphyrin interaction.
as §2
as §3, with “replicates. Crude, empty pET28b vector (EV) strain lysate protein and PAB only controls were run in parallel with experimental samples (EXP) for each porphyrin.” for “replicates.”
as §4

[3] = cited from earlier work
[4] = UV-VIS screening of binding and demetallation of Ni(II)-meso-tetra-(N-methyl-4-pyridyl) porphine tetrachloride; type: biochemical; conditions: crude and purified protein, 10 μM porphyrin, 24 hrs
Method: as §1, with “This approach minimizes false-negative results to maximize the number of potential protein candidates that can be identified.” left out
(§5) UV-VIS spectroscopy was used for initial screening of protein activity against numerous model compounds because each model porphyrin has a characteristic UV-VIS absorbance spectrum. A shift in the wavelength of maximal absorbance, commonly referred to as the “Soret band,” indicates a change in porphyrin conformation or a protein-porphyrin interaction. […]
(§6) Amber tubes were used for all assays to protect samples from light. […] Absorbance of a 2.4 mL sample was measured in a 1 cm quartz cuvette, at room temperature, 1 nm resolution, and 0.7 sec. integration time on an Evolution201® UV-VIS spectrophotometer with Thermo INSIGHT® software. Samples were incubated for 24 hrs. at room temperature and 75 RPM and their final UV-VIS absorbance spectra was measured. […]

[5] = UV-VIS screening of binding and demetallation of VO-meso-tetra-(N-methyl-4-pyridyl) porphine tetrachloride; type: biochemical; conditions: crude and purified protein, 10 μM porphyrin, 24 hrs
Method: as §1, with “This approach minimizes false-negative results to maximize the number of potential protein candidates that can be identified.” left out
as §5, §6

[6] = selective, repetitive treatment; cited from earlier work
[7] = site (24-His rich N-terminus; His2 and Glu2; micromolar Kd sites)

Row | Molecule | reduction of Ni(II)-protoporphyrin (IX) Soret band (specific demetallation) ([1]; crude protein lysate) | reduction of Ni(II)-protoporphyrin (IX) Soret band (specific demetallation) ([1]; purified protein) | binding / demetallation (change of Soret band) ([2]; crude and purified protein) | other results
1 | Hpn: nickel storage protein from H. pylori, SEQ ID NO 8; very small, histidine rich (MAHHEEQHGGHHHHHHHTHHHHYHGGEHHHHHHSSHHEEGCCSTSDSHHQEEGCCHGHHE; listed as Helicobacter pylori) | did not affect the Soret band | – | – | binding / demetallation (change of Soret band) ([2]; crude lysate only): did not affect the Soret band; affinities for nickel (II) ions ([3]; short repeating motifs, reversible binding): micromolar
2 | E. coli HypB: nickel chaperone HypB from E. coli, SEQ ID NO 2 (protein, listed as Escherichia coli) MCTTCGCGEGNLYIEGDEHNPHSAFRSAPFAPAARPKMKITGIKAPEFTPSQTEEGDLHYGHGEAGTHAPGMSQRRMLEVEIDVLDKNNRLAERNRARFAARKQLVLNLVSSPGSGKTTLLTETLMRLKDSVPCAVIEGDQQTVNDAARIRATGTPAIQVNTGKGCHLDAQMIADAAPRLPLDDNGILFIENVGNLVCPASFDLGEKHKVAVLSVTEGEDKPLKYPHMFAAASLMLLNKVDLLPYLNFDVEKCIACAREVNPEIEIILISATSGEGMDQWLNWLETQRCA | 17% | 83% | Neither binding nor demetallation was observed | Kd of Ni-binding ([3]; N-terminal Ni binding domain): has micromolar; Kd of Ni-binding ([3]; SEQ ID NO: 12 binding sites in the C-terminal domain): subpicomolar; Ni-binding: Ni (II) ions bound ([3]; per monomer): 2 Ni (II) ions per Ni (II) per monomer
3 | B. japonicum HypB: nickel chaperone HypB from B. japonicum, SEQ ID NO 3 (protein, listed as Helicobacter pylori) MHEYSVVSSLIALCEEHAKKNQAHKIERVVVGIGERSAMDKSLFVSAFETFREESLVCKDAVLDIVDEKVELECKDCSHVFKPNALDYGVCEKCHSKNVVITQGNEMRLLSLEMLAE | 29% | 99% | Neither binding nor demetallation was observed | binding / demetallation (change of Soret band) [4]: Neither binding to nor demetallation of these substrates was observed; binding / demetallation (change of Soret band) [5]: Neither binding to nor demetallation of these substrates was observed; Ni-binding: Ni (II) ions bound [3, 7]: 9 Ni (II) on 24-
4 | HypA: nickel chaperone from H. pylori, SEQ ID NO 1, His-tagged, expressed in E. coli (protein, listed as Bradyrhizobium japonicum, His-tag) MCTVCGCSDGKASIEHAHDHHHDHGHDHDHGHDGHHHHHHGHDQDHHHHHDHAHGDAGLLDCGANPAGQKITGMSSDRIIQVERDILGKNDRLAADNRARFRADEVLAFNLVSSPGAGKTSLLVRAVSELKDSFAIGVIEGDQQTSNDAERIRATGVPAIQVNTGKGCHLDAAMVGEAYDRLPWLNGGLLFIENVGNLVCPAAFDLGEACKIVVFSTTEGEDKPLKYPDMFAASSLMLINKIDLASVLDFDLARTIEYARRVNPKIEVLTLSARTGEGFAAFYAWIRKRMAATTPAAMTAAE | did not display Ni(II)-protoporphyrin (IX) binding or demetallation capabilities | 59% | neither binding nor demetallation was observed | Ni-binding: Ni (II) ions bound ([3]; per dimer): 2 Ni (II) ions per Ni (II) per dimer
5 | UreE: nickel chaperone from E. aerogenes, SEQ ID NO 5 (protein, Enterobacter aerogenes) MLYLTQRLEIPAAATASVTLPIDVRVKSRVKVTLNDGRDAGLLLPRGLLLRGGDVLSNEEGTEFVQVIAADEEVSVVRCDDPFMLAKACYHLGNRHVPLQIMPGELRYHHDHVLDDMLRQFGLTVTFGQLPFEPEAGAYASESHGHHHAHHDHHAHSH | remained unchanged | 17% | Neither binding nor demetallation | Ni-binding: Ni (II) ions bound ([3]; per dimer): 6 Ni (II) per Ni (II) per dimer
6 | SlyD: nickel chaperone from E. coli, SEQ ID NO 4 (protein, listed as Escherichia coli) MKVAKDLVVSLAYQVRTEDGVLVDESPVSAPLDYLHGHGSLISGLETALEGHEVGDKFDVAVGANDAYGQYDENLVQRVPKDVFMGVDELQVGMRFLAETDQGPVPVEITAVEDDHVVVDGNHMLAGQNLKFNVEVVAIREATEEELAHGHVHGAHDHHHDHDHDGCCGGHGHDHGHEHGGEGCCGGKGNGGCGCH | 12% | no change was observed | only minimal changes to the Soret band were observed | Kd of Ni-binding ([3]; C-terminal metal-binding domain (MBD)): nanomolar Kd.
7 | GloA: nickel metalloenzyme from E. coli, SEQ ID NO 6 (protein, listed as Helicobacter pylori) MDTPNKDDSIIRFSVSLQQNLLDELDNRIIKNGYSSRSELVRDMIREKLVEDNWAEDNPNDGSKIAVLVVIYDHHQRELNQRMIDIQHTSGTHVLCTTHIHMDGHNCLETIILKGNSLEIQRLQLEIGGLRGVKFAKLTKASSFEHNE | little or no binding and demetallation | little or no binding and demetallation | little or no binding and demetallation | Ni-binding: Ni (II) ions bound [3, 7]: 2 Ni (II),
8 | NikR: metalloregulator from H. pylori, SEQ ID NO 7 (protein, listed as Escherichia coli) MRLLHTMLRVGDLQRSIDFYTKVLGMKLLRTSENPEYKYSLAFVGYGPETEEAVIELTYNWGVDKYELGTAYGHIALSVDNAAEACEKIRQNGGNVTREAGPVKGGTTVIAFVEDPDGYKIELIEEKDAGRGLGN | remained unchanged | 56% | Neither binding to nor demetallation was observed | Kd of Ni-binding ([3]; 4 Ni (II) per complex, coordinated by His88, His99, His101 & Cys107): nanomolar Kd; Ni-binding: Ni (II) ions bound ([3]; per complex, nanomolar Kd sites): 4 Ni (II) per Ni (II) per complex; Kd of Ni-binding ([3]; up to 10 Ni (II) sites): micromolar Kd
9 | myoglobin conjugated to activated cellulose: myoglobin conjugated to activated cellulose, reported by Smith et al. (conjugate, UniProt P68082 2-154, looked up, conjugated to activated cellulose) Myoglobin: GLSDGEWQQVLNVWGKVEADIAGHGQEVLIRLFTGHPETLEKFDKFKHLKTEAEMKASEDLKKHGTVVLTALGGILKKKGHHEAELKPLAQSHATKHKIPIKYLEFISDAIIHVLHSKHPGDFGADAQGAMTKALELFRNDIAAKYKELGFQG | – | – | – | removal of V, Ni porphyrins [6]: up to 22%
